Data published in patent US20200283773, “NUCLEOLIN-TARGETING APTAMERS AND METHODS OF USING THE SAME” (Duke University, published 2020).

Assays:
Settings in all cases: label: 32P end label
[1] = target: T1, nucleolin (NCL), recombinant (Homo sapiens, UniProt P19338 SEQ:1-710); experiment: filter; 20 mM Hepes, 150 mM NaCl, 2 mM CaCl2, 0.01% BSA, 37 C; Bmax 23.08%
Method: (§1) Aptamers were end-labeled with ³²P. Nucleolin protein was serially diluted in 20 mM Hepes, 150 mM NaCl, 2 mM CaCl₂ and 0.01% bovine serum albumin and incubated with a trace amount of the ³²P-labeled RNA pools. After incubation at 37° C., unbound RNA was captured on a nylon membrane and RNA-nucleolin complexes captured on a nitrocellulose membrane. The fraction of protein-bound RNA was determined via phosphorimaging of the nitrocellulose and nylon membranes.

[2] = target: T1, nucleolin (NCL), recombinant; experiment: filter; among truncates with best affinity; values only in figure
[3] = target: T1, nucleolin (NCL), recombinant; experiment: filter; 20 mM Hepes, 150 mM NaCl, 2 mM CaCl2, 0.01% BSA, 37 C; Bmax 25.2%
Method: as §1

[4] = target: T1, nucleolin (NCL), recombinant; experiment: filter; similar affinity to parent Ev3
[5] = target: T1, nucleolin (NCL), recombinant; experiment: filter; 20 mM Hepes, 150 mM NaCl, 2 mM CaCl2, 0.01% BSA, 37 C; Bmax 32.76%
Method: as §1

[6] = target: T1, nucleolin (NCL), recombinant; experiment: filter; 20 mM Hepes, 150 mM NaCl, 2 mM CaCl2, 0.01% BSA, 37 C; Bmax 33.6%, R2 0.6520
Method: as §1

[7] = target: T1, nucleolin (NCL), recombinant; experiment: filter; Ev2 described as non-binding aptamer control
[8] = target: T1, nucleolin (NCL), recombinant; experiment: filter; 20 mM Hepes, 150 mM NaCl, 2 mM CaCl2, 0.01% BSA, 37 C; Bmax 53.6%
Method: as §1

T1 sequence (P19338 whole entry): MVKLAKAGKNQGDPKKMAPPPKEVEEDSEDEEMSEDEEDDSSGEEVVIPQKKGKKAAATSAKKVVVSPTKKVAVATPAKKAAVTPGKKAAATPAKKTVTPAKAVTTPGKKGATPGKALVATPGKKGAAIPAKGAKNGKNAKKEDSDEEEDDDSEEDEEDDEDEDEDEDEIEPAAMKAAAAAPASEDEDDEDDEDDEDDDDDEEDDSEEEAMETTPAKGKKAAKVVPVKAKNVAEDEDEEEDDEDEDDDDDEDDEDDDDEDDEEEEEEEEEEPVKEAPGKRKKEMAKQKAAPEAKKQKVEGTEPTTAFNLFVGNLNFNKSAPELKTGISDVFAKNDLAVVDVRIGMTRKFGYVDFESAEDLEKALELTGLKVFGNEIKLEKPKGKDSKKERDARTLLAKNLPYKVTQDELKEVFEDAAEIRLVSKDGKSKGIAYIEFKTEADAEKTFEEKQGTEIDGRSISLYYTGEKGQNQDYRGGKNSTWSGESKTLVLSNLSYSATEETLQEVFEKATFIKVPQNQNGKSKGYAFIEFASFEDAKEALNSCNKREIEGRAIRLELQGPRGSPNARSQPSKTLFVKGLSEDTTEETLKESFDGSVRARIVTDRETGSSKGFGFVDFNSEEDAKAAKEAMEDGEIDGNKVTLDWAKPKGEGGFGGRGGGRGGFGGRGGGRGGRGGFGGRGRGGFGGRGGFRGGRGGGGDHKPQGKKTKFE

B1: FAM-E (ssRNA)
RNA: GGGAGAGAGGAAGAGGGAUGGGCACGGUCCAGCGCUAACUGUACCUGCUGUGCCACCCACCGCAUAACCCAGAGGUCGAUAGUACUGGAUCCCCCC
modifications: 2'-F pyrimidines
- Kd [1]: 1.69 nM

B2: Ev3 (ssRNA)
RNA: GGGAGAGAGGAAGAGGGAUGGGCACGGUCCAGCGCUAACUGUACCUGCUGUGCCACCCACCG
modifications: 2'-F pyrimidines
- binding result ([2]; DL650 for flow): binds

B3: FAM-B (ssRNA)
RNA: GGGAGAGAGGAAGAGGGAUGGGAGCCAGCUUUGCAUACCACGUGCAAUUCACUCCACCCGUCACAUAACCCAGAGGUCGAUAGUACUGGAUCCCCCC
modifications: 2'-F pyrimidines
- Kd [3]: 0.851 nM

B4: Fv3 (ssRNA)
RNA: GGGAGAGAGGAAGAGGGAUGGGACCACGCGCCAACGUGUCAGCUACACGCCGUGUUCCCCGG
modifications: 2'-F pyrimidines
- binding result [2]: binds

B5: Ev3.min22 (ssRNA)
RNA: GGGAGGAAGAGGGAUGGGCACGGUCCAGCGCUAACUGUACCUGCUGUGCCACCC
modifications: 2'-F pyrimidines
- binding result [4]: binds

B6: FAM-C (ssRNA)
RNA: GGGAGAGAGGAAGAGGGAUGGGAAGAUCUGCUAAGUGCACGCACAAUCACCAUCGAGCGUCUCAUAACCCAGAGGUCGAUAGUACUGGAUCCCCCC
modifications: 2'-F pyrimidines
- Kd [5]: 0.428 nM

B7: FAM-F (ssRNA)
RNA: GGGAGAGAGGAAGAGGGAUGGGACCACGCGCCAACGUGUCAGCUACACGCCGUGUUCCCCGGCAUAACCCAGAGGUCGAUAGUACUGGAUCCCCCC
modifications: 2'-F pyrimidines
- Kd [6]: 0.37 nM

Binder: GGGAUGGGCACGGUCCAGCGCUAACUGUACCUGCUGUGCCACCCACCGC (ssRNA, 2'-F pyrimidines) [Ev2]
- binding result [7]: no binding

B8: Ev3.min24 (ssRNA)
RNA: GGGAGGAAGAGGGAUGGGCACGGUCCAGCGCACUGUACCUGCUGUGCCACCC
modifications: 2'-F pyrimidines
- binding result [4]: binds

B9: FAM-D (ssRNA)
RNA: GGGAGAGAGGAAGAGGGAUGGGCACAUGGUACGCCCAAAGCGAGGCCCGCUGCGUAGUGCCAUAACCCAGAGGUCGAUAGUACUGGAUCCCCCC
modifications: 2'-F pyrimidines
- Kd [8]: 0.586 nM

B10: Bv1 (ssRNA)
RNA: GGAAGAGGGAUGGGUGCCAGCUUUGCAUACCACGUGCAAUUCACUCCACCCGUCAC
modifications: 2'-F pyrimidines
- binding result [2]: binds

B11: Dv2 (ssRNA)
RNA: GGGAGAGAGGAAGAGGGAUGGGCACAUGGUACGCCCAAAGCGAGGCCCGCUGCGUAGUGCC
modifications: 2'-F pyrimidines
- binding result [2]: binds

B12: Ev5 (ssRNA)
RNA: GGAAGAGGGAUGGGCACGGUCCAGCGCUAACUGUACCUGCUGUGCCACCCACC
modifications: 2'-F pyrimidines
- binding result ([2]; DL650 for flow): binds

Binder: GGGAUGGGCACGGUCCAGCGCUAACUGUACCUGCUGUGCCACCC (ssRNA, 2'-F pyrimidines) [Ev3.min21]
- binding result [4]: binds
